This passage reports Km and Kd results from PMC12781114, “Mechanistic and Molecular Dynamics Studies Reveal that Increased Loop 3 Mobility Alters Substrate Capture in an NADH:Quinone Oxidoreductase” (Biochemistry, 2025).

Data set [1] has as its system COC1=C(OC)C(=O)C(C)=CC1=O. Nature of the data set: purified protein. The conditions noted are these: pH 6.0, 25.0 °C. In kind it is biochemical, Pseudomonas aeruginosa.
In data set [2] the target is T1, NADH:quinone oxidoreductase (NQO-P78G) (Pseudomonas aeruginosa, UniProt Q9I4V0, P78G).
T1 construct: gene PA1024
T1 sequence (Q9I4V0 whole entry P78G): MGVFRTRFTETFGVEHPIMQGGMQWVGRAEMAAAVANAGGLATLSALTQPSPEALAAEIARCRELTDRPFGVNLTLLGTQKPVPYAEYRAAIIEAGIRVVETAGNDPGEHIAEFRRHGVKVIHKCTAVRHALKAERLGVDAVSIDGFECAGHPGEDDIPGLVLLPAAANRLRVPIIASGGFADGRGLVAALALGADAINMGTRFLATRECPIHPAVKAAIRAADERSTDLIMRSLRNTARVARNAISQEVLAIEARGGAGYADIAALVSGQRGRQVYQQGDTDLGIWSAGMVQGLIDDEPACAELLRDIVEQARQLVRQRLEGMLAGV
Nature of the data set: anaerobic stopped-flow reductive half-reaction (flavin reduction at […] nm), hyperbolic fit; steady-state kinetics. In kind it is biochemical.

What is called Km is the concentration of substrate that gives half-maximal velocity. For “NADH:quinone oxidoreductase (NQO-P78G) (Pseudomonas aeruginosa PAO1; P78G)”, the Km in data set [1] (FMN active site pocket, binds the reduced enzyme (ping-pong bi-bi)) turned out to be 10 ± 1 µM.

Consider “NADH:quinone oxidoreductase (NQO-WT) (Pseudomonas aeruginosa PAO1)”, for which the Km in data set [1] was 35 ± 6 µM. One may read the Kd as the concentration at which binding is half-saturated. A higher Kd goes with weaker binding. Take `NC(=O)C1=CN([C@@H]2O[C@H](COP(=O)(O)OP(=O)(O)OC[C@H]3O[C@@H](n4cnc5c(N)ncnc54)[C@H](O)[C@@H]3O)[C@@H](O)[C@H]2O)C=CC1` [NADH]: the Kd in data set [2] came to 450 ± 40 µM.
